From IntAct's records for PubMed 10648618

B1: Carbon catabolite-derepressing protein kinase (Saccharomyces cerevisiae), P06782 (parent)
chain: MSSNNNTNTAPANANSSHHHHHHHHHHHHHGHGGSNSTLNNPKSSLADGAHIGNYQIVKTLGEGSFGKVKLAYHTTTGQKVALKIINKKVLAKSDMQGRIEREISYLRLLRHPHIIKLYDVIKSKDEIIMVIEYAGNELFDYIVQRDKMSEQEARRFFQQIISAVEYCHRHKIVHRDLKPENLLLDEHLNVKIADFGLSNIMTDGNFLKTSCGSPNYAAPEVISGKLYAGPEVDVWSCGVILYVMLCRRLPFDDESIPVLFKNISNGVYTLPKFLSPGAAGLIKRMLIVNPLNRISIHEIMQDDWFKVDLPEYLLPPDLKPHPEEENENNDSKKDGSSPDNDEIDDNLVNILSSTMGYEKDEIYESLESSEDTPAFNEIRDAYMLIKENKSLIKDMKANKSVSDELDTFLSQSPPTFQQQSKSHQKSQVDHETAKQHARRMASAITQQRTYHQSPFMDQYKEEDSTVSILPTSLPQIHRANMLAQGSPAASKISPLVTKKSKTRWHFGIRSRSYPLDVMGEIYIALKNLGAEWAKPSEEDLWTIKLRWKYDIGNKTNTNEKIPDLMKMVIQLFQIETNNYLVDFKFDGWESSYGDDTTVSNISEDEMSTFSAYPFLHLTTKLIMELAVNSQSN
partner: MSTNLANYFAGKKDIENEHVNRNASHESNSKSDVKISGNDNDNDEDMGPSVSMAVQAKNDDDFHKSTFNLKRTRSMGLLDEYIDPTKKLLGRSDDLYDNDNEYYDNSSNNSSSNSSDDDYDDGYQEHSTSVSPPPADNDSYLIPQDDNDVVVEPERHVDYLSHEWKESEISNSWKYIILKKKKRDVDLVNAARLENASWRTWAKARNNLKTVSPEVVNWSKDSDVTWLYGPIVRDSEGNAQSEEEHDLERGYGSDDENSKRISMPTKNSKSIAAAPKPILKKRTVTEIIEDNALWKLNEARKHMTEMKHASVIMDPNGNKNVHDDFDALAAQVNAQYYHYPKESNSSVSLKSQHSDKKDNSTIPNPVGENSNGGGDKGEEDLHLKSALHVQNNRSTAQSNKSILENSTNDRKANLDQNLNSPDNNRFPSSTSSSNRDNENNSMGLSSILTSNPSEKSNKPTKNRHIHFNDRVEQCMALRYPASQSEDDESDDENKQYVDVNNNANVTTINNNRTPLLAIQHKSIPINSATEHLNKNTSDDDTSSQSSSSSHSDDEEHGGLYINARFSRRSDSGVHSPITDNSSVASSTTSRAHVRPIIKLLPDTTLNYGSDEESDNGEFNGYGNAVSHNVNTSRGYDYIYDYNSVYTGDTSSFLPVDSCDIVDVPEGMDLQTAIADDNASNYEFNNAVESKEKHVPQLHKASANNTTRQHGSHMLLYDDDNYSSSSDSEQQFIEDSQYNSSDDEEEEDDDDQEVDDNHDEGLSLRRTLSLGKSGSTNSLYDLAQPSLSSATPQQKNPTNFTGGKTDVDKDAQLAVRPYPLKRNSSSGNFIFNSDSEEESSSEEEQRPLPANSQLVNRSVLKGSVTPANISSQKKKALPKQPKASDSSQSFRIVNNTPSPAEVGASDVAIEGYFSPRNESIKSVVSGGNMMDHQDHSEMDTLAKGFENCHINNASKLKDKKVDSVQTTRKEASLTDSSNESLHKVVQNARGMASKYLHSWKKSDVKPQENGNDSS

Variants of: B1
Details: with reg1_yeast REG1, Q00816

effect of a mutation on the interaction	Variant
with no effect	K84R

Variants of: B1
Details: with reg1_yeast REG1, Q00816
Remark: another data set of the same source

effect of a mutation on the interaction	Variant
increasing interaction strength	K84R
